Test results taken from the supplement of paper PMC9112550, “Optimization of the antimicrobial peptide Bac7 by deep mutational scanning” (BMC Biology, 2022).

Test system: Escherichia coli TOP10
Assay: shrunken log2 fold change of peptide-encoding DNA abundance (4.5 h post-induction vs induction); higher = less antimicrobial activity (less host growth inhibition)
Settings: time post-induction: 4.5 h; library: site-saturation at positions 5, 18, 19, 20
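Note: peptides expressed intracellularly from a pBAD plasmid library in pooled LB shake-flask culture, induced with 0.3% L-arabinose, DNA abundance read by NGS, three biological replicates, DESeq2 with apeglm shrinkage.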

Sequence | shrunken log2 fold change
RRIRKRPPRLPRPRPRPGCMPRP | 0.993
RRIRFRPPRLPRPRPRPFQLPRP | -0.0751
RRIRYRPPRLPRPRPRPPLYPRP | 0.755
RRIRYRPPRLPRPRPRPNTVPRP | -0.301
RRIRRRPPRLPRPRPRPNWFPRP | -0.0681
RRIRNRPPRLPRPRPRPNWEPRP | 0.0299
RRIRERPPRLPRPRPRPRFPPRP | 0.0958
RRIRERPPRLPRPRPRPLFAPRP | -0.0197
RRIRWRPPRLPRPRPRPQAWPRP | 0.23
RRIRWRPPRLPRPRPRPKYRPRP | 0.00658
RRIRCRPPRLPRPRPRPQMLPRP | 0.0498
RRIRTRPPRLPRPRPRPDDQPRP | -0.052
RRIRARPPRLPRPRPRPTKGPRP | 0.308
RRIRARPPRLPRPRPRPATSPRP | 0.461
RRIRCRPPRLPRPRPRPYPVPRP | -0.441
RRIRCRPPRLPRPRPRPYYHPRP | -1.28
RRIRIRPPRLPRPRPRPCGAPRP | -0.25
RRIRMRPPRLPRPRPRPWTKPRP | -0.0384
RRIRGRPPRLPRPRPRPRYKPRP | 0.247
RRIRMRPPRLPRPRPRPLNVPRP | 0.0507
RRIRIRPPRLPRPRPRPATMPRP | -0.0977
RRIRVRPPRLPRPRPRPFCFPRP | 0.0496

Sequence | shrunken log2 fold change
RRIRIRPPRLPRPRPRPAGNPRP | -0.0516
RRIRDRPPRLPRPRPRPYQHPRP | -0.221
RRIRMRPPRLPRPRPRPWEIPRP | -0.00146
RRIRIRPPRLPRPRPRPDLYPRP | -0.408
RRIRCRPPRLPRPRPRPYHPPRP | -0.539
RRIRGRPPRLPRPRPRPCDEPRP | 0.566
RRIRGRPPRLPRPRPRPAEKPRP | 0.261
RRIRPRPPRLPRPRPRPDYAPRP | 0.0585
RRIRMRPPRLPRPRPRPKAEPRP | 3.05
RRIRKRPPRLPRPRPRPAHVPRP | 0.03
RRIRLRPPRLPRPRPRPGRQPRP | 0.207
RRIRNRPPRLPRPRPRPQCCPRP | -0.0308
RRIRCRPPRLPRPRPRPDELPRP | -0.044
RRIRRRPPRLPRPRPRPEYQPRP | 0.119
RRIRLRPPRLPRPRPRPFDCPRP | 0.00355
RRIRFRPPRLPRPRPRPAADPRP | 0.0709
RRIRQRPPRLPRPRPRPQGNPRP | 0.00341
RRIRFRPPRLPRPRPRPPRRPRP | 0.826
RRIRIRPPRLPRPRPRPKPEPRP | 0.0874
RRIRKRPPRLPRPRPRPWIVPRP | -0.056
RRIRTRPPRLPRPRPRPVWIPRP | -0.651
RRIRARPPRLPRPRPRPNPKPRP | 0.372

Sequence | shrunken log2 fold change
RRIRERPPRLPRPRPRPYTKPRP | -0.277
RRIRIRPPRLPRPRPRPYKSPRP | -1.14
RRIRCRPPRLPRPRPRPVHVPRP | -0.496
RRIRARPPRLPRPRPRPITPPRP | -0.0533
RRIRSRPPRLPRPRPRPDGGPRP | -0.125
RRIRVRPPRLPRPRPRPTRRPRP | 0.529
RRIRGRPPRLPRPRPRPKMQPRP | 0.292
RRIRGRPPRLPRPRPRPRNPPRP | 0.52
RRIRHRPPRLPRPRPRPVGIPRP | -0.294
RRIRERPPRLPRPRPRPYVIPRP | -0.172
RRIRCRPPRLPRPRPRPMISPRP | -0.235
RRIRRRPPRLPRPRPRPYWCPRP | -0.0451
RRIRQRPPRLPRPRPRPLKLPRP | -0.017
RRIRMRPPRLPRPRPRPMSTPRP | 0.0207
RRIRRRPPRLPRPRPRPWVIPRP | -0.125
RRIRLRPPRLPRPRPRPYWFPRP | -0.758
RRIRARPPRLPRPRPRPWLMPRP | 0.0299
RRIRWRPPRLPRPRPRPVVIPRP | -0.101
RRIRARPPRLPRPRPRPGNPPRP | 0.167
RRIRSRPPRLPRPRPRPHEAPRP | 0.0366
RRIRWRPPRLPRPRPRPGGWPRP | 0.851
RRIRERPPRLPRPRPRPQAFPRP | -0.017

Sequence | shrunken log2 fold change
RRIRKRPPRLPRPRPRPITRPRP | 0.132
RRIRKRPPRLPRPRPRPHMIPRP | -0.335
RRIRVRPPRLPRPRPRPHHWPRP | -0.157
RRIRLRPPRLPRPRPRPKSTPRP | -0.222
RRIRCRPPRLPRPRPRPGGIPRP | -0.329
RRIRSRPPRLPRPRPRPIREPRP | -0.0902
RRIRMRPPRLPRPRPRPALRPRP | 0.851
RRIRMRPPRLPRPRPRPRDQPRP | 0.776
RRIRSRPPRLPRPRPRPTALPRP | 0.14
RRIRPRPPRLPRPRPRPVQRPRP | 0.0521
RRIRNRPPRLPRPRPRPLKGPRP | -0.0139
RRIRHRPPRLPRPRPRPDMYPRP | -0.00022
RRIRVRPPRLPRPRPRPGAAPRP | 0.653
RRIRTRPPRLPRPRPRPKMAPRP | 0.129
RRIRFRPPRLPRPRPRPVDEPRP | 0.0494
RRIRRRPPRLPRPRPRPKDNPRP | 0.0969
RRIRDRPPRLPRPRPRPKSCPRP | -0.0117
RRIRIRPPRLPRPRPRPVTCPRP | -0.255
RRIRWRPPRLPRPRPRPNRCPRP | 0.0312
RRIRGRPPRLPRPRPRPDHVPRP | 0.0598
RRIRSRPPRLPRPRPRPSTTPRP | -0.433
RRIRCRPPRLPRPRPRPCVPPRP | -0.49

Sequence | shrunken log2 fold change
RRIRRRPPRLPRPRPRPTWQPRP | 0.459
RRIRARPPRLPRPRPRPPDVPRP | 0.655
RRIRARPPRLPRPRPRPGLGPRP | 1.16
RRIRPRPPRLPRPRPRPRHHPRP | -0.0806
RRIRIRPPRLPRPRPRPWDLPRP | -0.119
RRIRPRPPRLPRPRPRPYTYPRP | -0.0956
RRIRDRPPRLPRPRPRPIRVPRP | -0.185
RRIRSRPPRLPRPRPRPFMKPRP | -0.205
RRIRERPPRLPRPRPRPLHGPRP | -0.212
RRIRMRPPRLPRPRPRPFECPRP | 0.0161
RRIRCRPPRLPRPRPRPSMHPRP | -0.346
RRIRDRPPRLPRPRPRPCMLPRP | 1.36
RRIRDRPPRLPRPRPRPYKKPRP | 0.00426
RRIRDRPPRLPRPRPRPRKCPRP | -0.0114
RRIRKRPPRLPRPRPRPYFTPRP | -0.0968
RRIRGRPPRLPRPRPRPQMLPRP | -0.0638
RRIRHRPPRLPRPRPRPEMWPRP | 0.263
RRIRMRPPRLPRPRPRPKLPPRP | 1.13
RRIRVRPPRLPRPRPRPVCFPRP | 0.147
RRIRDRPPRLPRPRPRPTFLPRP | 0.196
RRIRWRPPRLPRPRPRPPWDPRP | 0.131
